Data from the nanobody polyreactivity screen of Harvey et al. (2022).

Assay: yeast display, Sf9 membrane polyspecificity reagent, FACS + sequencing; frameworks hold sequencing errors
In short: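 Synthetic nanobody libraries on Saccharomyces cerevisiae BJ5465 were galactose-induced for 36–48 hours, stained 1 hour at 4 °C with 10% biotinylated, detergent-solubilized Sf9 membrane reagent and enriched on streptavidin microbeads. FACS then separated cells into low and high (top ~1%) gates by anti-HA (expression) and streptavidin (reagent binding) fluorescence. Genes were colony-PCR amplified, MiSeq 2 × 250 sequenced and CDR-length filtered. A clone's polyreactivity label is that of its gate of origin.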

Sequence	polyreactivity (PSR sort gate)
QVQLVESGGGLVQAGGSLRLSCAASGSIFYGYAMGWYRQAAGKERELVARITGSGGDTSYADSVKGRFTISRDNSKNTVYLQMNSLKPEDTALYYCNTDLYITYTLYTGSEYDYWGQGTQVTVSS	low polyreactivity
QVQLVESGGGLVQAGGSLRLSSAASGNTIYGYAMGWYRQAPGNERELVASITLSGDSTYYADSVKGRFTISRDNAKNTVYLQMNSLKPEDTAVYYCAGVYTYPLGYYHYTYDYWGQGTQVTVSS	low polyreactivity
QVQLVESGGGLVQAGGSLRLSCAASGYTFVTYAMGWYRQAPGKERELVAAISYTGGSTYYADSEKGRFTISRDNAKNTVYLQMNSLKPEDTAVYYCNTRYSLYTKYAYYDEHDYWGQGTQVTVSS	low polyreactivity
QVQLVESGGGLVQAGGSLRLSCAASGLTFYYNAMGSYRQAPGKERELVAAISRSAGSTYYADSVKGRFTISRDNAKNTVYLQMHSLKPEDTAVYYCAVGYVYTRKGRVQPVKYDYWGQGTQVTVSS	high polyreactivity
QVQLVESGGGLLQAGGSLRLSCAASGRIFHYYAMGWYRQAPGKERELVAGIETSGGSTYYADSVNWRFTISRDNAKNTVYLKLNSLKPEDTAVYYCATDQYYSYDYVYWGQGTQVTVSS	low polyreactivity
QVQLVESGGGLVQAGGSLRLSCAASGRIFVVYAMGWSRQAPGKERELVAAIRSGGSTNYADSVKGRFTISRDNAKNTVYFQLNSLKPEDTAVYNCAARKWHSAYDYWGQGTQVTVSS	high polyreactivity
QVQLVETGGGLVQAGGSLRLSCAASGNMFVTYDMGWYRKAPGKERELVASISWNGGSTNYADSVKGRFTISRDNAKNTVYLQMNSLKPEDTAVYYCAVDYARDKGYPYGYWGQGTQVTVSS	low polyreactivity
QVQLVESGGGLVQAGGSLRLSCAASGLIFPWNAMGWYRQAPGKERELVAAINGRDGSTYYADSVKGLFTISRDNAKNTVYLQMNSLKPEDTAVYYCAKGPSGVRTYREYDSWGQGPQVTVSS	low polyreactivity
QVQLVESGGGLVQAGGSLRLSCAASGRIFYWNAMGCYRQAPGKERELVADISTGGSTYYADSVKGRFTISRDNAKNTVYLQMNRLKPEDTAVYYCAVVYVSLWPSATDWSGFGYWGQGTQVTVSS	low polyreactivity
QVQLVESWGGLVQAGGSHRLSCAASGRTFPIYAMGWYRQAPGKERELVAAITYSGGSTYYADSVKGRFTISRDNAKNTVYLQMNSLKPEDTAVYYCAVDGTKPYWHQRYDYWGQGTQVTVSS	low polyreactivity
QVQLVESGGGLVQAGGSLRLSCAASGFIFKGYAMGWYRQAPGKERELVAAISKGGGNTYYADSVMGRFSISRDNAKNTVYLQMNSLKPEDTAVYYCAAVPTRYRSYTYTYGGYNYWGQGTQVTVSS	high polyreactivity
QVQLVESGGGLVQAGGSLRLSCAASGSIFAGNAMGWYRQAPGKERELVAAISRRGGSTYYADSVKGRFTISRDNAKNTVYLQMNSLKPEDTAVYYCNALLRYAYHAAYGYWGQGPQVTVSS	high polyreactivity
QVQLVESGGGLVQAGGSLRLSCAASGLTIYYYAMGWYRQAPGKERELVAAITWRGGSTYYADSVKGRFTISRDNAKNTVYLQMNSLKPEDTAVYYCAADPGPYGYYYWGQGTQVTVSS	low polyreactivity
QLQLVESGGGLVQAGGSLRLSCAASGNNIVFYAMGRYRQAPGKERELVAAMTSGGSTNYADSVKGRFTISRDNAKNTVYLQMNSLKPEATAVYYCAARQWFAHRRWGGSRYDYWGQGTQGTVSS	low polyreactivity
QVQLVESGGGLVQAGGSLRLSCAASGSIFANNAMGWYRQAPGKERELVAAIDWSAASTYYADSVKGRFTISRDNAKNTVYLQMNSLKPEDTAVYYCNARALGGGHIGFNHYVYGFGYWGQGTQVTVSS	low polyreactivity
QVQLVESGRGLVQEGGSLRLSCAPSGSTFYRFAMGWYRQAPGKERELVAAISASGGSTYYADSVKGRFTISRDNAKYTVYLQMNSLKPEDTEVYYCNRDRRYRNDYWGQGTQVTVST	high polyreactivity

Sequence	polyreactivity (PSR sort gate)
QVQLVESGGGLVQAGGSLRLICAASVSTFVRNAMGLYRQAPGKERELVAAISRSGGRTYYADSVKGRFTISRDNAKNTVYLQMNSLKPEDTSVYYCAADGKSVYDYWGQGTQVTVSS	high polyreactivity
QVQIVESGGGLVQAGGSLRLSCAASGSTFGSNAMGWYRQAPGKERELGAAISWTGGSTYYADSVKGRFTISRDNAKNTVYLQLNSLKPEDTAVYYCNKRIAESDTTVTYDYWGQGTQVNVSS	low polyreactivity
QVQLVESGGGLVQAGGSLRLSCAASGSIFVYYTMGWYRKAPGKERELVASIDSGDRTNYADSVKGRFTISRDNAKNTVYLQMNSLKPEDTAVYYCAARHSRSWRFNSRRRYGYWGQGTQVTVSS	high polyreactivity
QVQLVESGGGLVQAGGSLRLSCAASGSTFEANAMGWYRQAPGNERELVAVITWTGGSTYYADSVKGRFTISRDNAKNTVYLQMNSLKPEDTAVYYCAADGVVPGRFFWPAHEYDYWGQGTQVTVSS	low polyreactivity
QVQLVESGGGLVQAGGSLRLSCAASRRTSRYYAMGWYRQAPGKETEFVAAINFSGGRTYYADSVKGRFTISRDNAKNSVYLQMNSLKPEDTAVYYCATQDYRYRYSRFGYWGQGTLVTVSS	high polyreactivity
QVQLVESGGGLVQAGGSLRLSCAASGRTFVKNTMGWYRQATGKERELVAAISSSGGSTYYADSVKGRFTISRHNAKNTVYLQMNSLNPEDTAVYFCAVSYPYKHAGGWYAYNYWGQGTQVTVSS	high polyreactivity
QVQLVDSGGGLVQAGGSLRLSCSASGFTFKYYAMGWYRQAPGKERELVASINWSGGRTSYADSVKGRFTISRDNAKNTVYLQMNSQKPEDTAVYYCARTPAGRGEYWGQGTQVTVSS	low polyreactivity
QVQLVDSGGGLVQAGGSLSLSCGASGIIFVSNAMGWYRQAPGKERELVATINWSDDSTYYADSVKGRFTISRDNAKNTVYLQMNSLKPEDTAVYYCYWRQGTQVTVSS	low polyreactivity
QVQLVESGGGLVQAGCSLRLSCAASGFILTYYLMGWYRQAPGKERELVAAILSGGNTYYADSVKGRFTISRDNAQNTVYLQMNCLKPEDTAVYYFNARPRWSYGLDYWGQGTQVTVSS	high polyreactivity
QVQLVESGGGLVQAGGSLRLSCAASGRIFGRYTMGWYRQAPGKERELVAAISARGGSTYYADSVKGRFTISRDNAKNTVYLQMNSLKPEDTAVYYCNTVRVHGFPIDRIYDYWGQGTQVTVSS	high polyreactivity
QVQLVESGGGLVQAGGSLRLSCAASGSIITYYAMGGYRQAPGKERELVAGISARGGSTRYADSVKGRFTISRDNAKNTVYLQMNSLKPEDTAVYYCAADSRTNGYDYWGQGTQVTVSS	high polyreactivity
QVQLVESGGGLVQAGGSLRLSCAASGITNTHYAMGWYRQAPGKERELVAAITSSGRTYYADSVKGRFTISRDNAKNTVYLQMNSLKPEDTAVYYCAAEHSWYYGLLGYWGQGTQVTVSS	high polyreactivity
QVQLVESGGGLVQAGGSLRLSCAASGRTFIGNAMGWSRQAPGKERELVAGIDSDGSTNYADSVKGRFTISRDNAKNTVYLQMNSLKPEDTAVYYCAAVQGYRFYEYYYWGQGTQVTVSS	low polyreactivity
QVHLVESGGGLVQAGGSLRLSCAASGSIFVPYAMGWYRKAPGKERELVAAITYSDGCTYYADSVKGRFTMSRDNAKNTVYLQMNSLKPEDTAVYYCATYPQYYFRYDYWGQGTQVTVSS	high polyreactivity
QVQLVESGGGLVQAGGSLRLSCAASGFTLRRYAMGWYRLAPGKERELVATITSGGTTDYADSVKGRFTISRDNAKNTVYLQMNSLKPEDTAVYYCAAYRRGAYYYWGQGTQVTVSS	high polyreactivity
